Reference: the nanobody polyreactivity screen of Harvey et al. (2022)

Experiment: yeast display, Sf9 membrane polyspecificity reagent, FACS + sequencing; frameworks hold sequencing errors
Method in brief: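 Nanobodies from a synthetic yeast display library (Saccharomyces cerevisiae BJ5465), induced 36–48 hours with galactose, were stained 1 hour at 4 °C with 10% biotinylated, detergent-solubilized Sf9 membrane reagent, enriched on streptavidin microbeads, then FACS-sorted. Anti-HA (expression) and streptavidin (reagent binding) fluorescence set low and high (top ~1%) gates. Polyreactivity labels come from the gate of origin. Genes were colony-PCR amplified, MiSeq 2 × 250 sequenced and filtered by CDR length.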

## LVHLQESGGGLVHAGGGLRLSCAASGNIFTYVIMGWYRQPPVKERELVAAITYGTITNYADSVKGPFTISRDNAKITVDLQMKCLKPEDSAEYHCAVQSPRIEPRLYYWGQGTEVTVSS
  polyreactivity (PSR sort gate): high polyreactivity

## QVQLVESGGGLVQAGGSLRLSCAASGITFGTYAMGWYRQAPGKERELVAAISQSSGRTYYADSVKGRFTISRDNAKNSVYLQMNSLKPEDTAVYYCADRTRGSSRGDYDYWGQGTQVTVSS
  polyreactivity (PSR sort gate): high polyreactivity

## QVQLVESGGGIVQAGGSLRLSCAASGRIFDWYVMGWYRQAPGKERELVAAINSGVSTKYADSVKGRFTISRDNAKNTVYLQMNSLKPEDTAVYYCAAQSFSDYRRTGRKSSYYYWGQGTLVTVSS
  polyreactivity (PSR sort gate): low polyreactivity

## QVQLVESGGGLVQAGGSLRLSCAASGFIFRWYAMGWYRQAPGKERELVATITRGGGSTYYADSVKGRFTISRDNAKNTVYLQMNSLKPEDTAVYYCAKSVTGWRGLWYTPRNYYWGQGTQVTVSS
  polyreactivity (PSR sort gate): high polyreactivity

## QVQLVESGGGLVQAGGSLRLSCAASGRTFPGYAMGWYRQAPGKERELVAAITSSGSSTYYADSVKGRFTISRDNAKNTVYLQMNSLKPEDTAVYYCAAKTSGDYDYWGQGSQVTVSS
  polyreactivity (PSR sort gate): low polyreactivity

## QVQLVESGGGLVQAGGSLRLSCAASGSIFITYAMGWYRQAPGKEMELVAAIRDSGDRTYYADSVKGRFTISRDNAKNTVYLQMNSLKPVDTAVYYCNARWEEPLKYDYWGQGTQVTVSS
  polyreactivity (PSR sort gate): low polyreactivity

## QVQLVESGGCLVQAGGSLRLSCAASGITITANAMGWYRQAPRKERELVAAITWSGGSTYYADSVKGRFTISRDNAKNTVYLQMNSLKPEETAVYYCNAEGIGDREYDYWGQGTQVTVSS
  polyreactivity (PSR sort gate): low polyreactivity

## QVHLVESGGGLVQAGGSLRLSCAASGRTFYYNAMGWYRQEPGKEREFVAAIRYSGSITYYADSVKGRFTISRDNAKNTVYLQMNSLKPEDTAVYYCAADYVSRRYYYWGQGTQVTVSS
  polyreactivity (PSR sort gate): high polyreactivity

## QVQLVESGGGLVQAGGSLRLTCAASGFTFGVYAMGWYRQAPGKERELVAAIDDGTNTYYADSVKGRFTISRDNAKNTVYLQMNSLKPEDTAVYYCNADDPYYIAEQSWSESDYWGQGTQVTVSS
  polyreactivity (PSR sort gate): low polyreactivity

## QVQIVESGGGLVQAGGSLRLSCAASGNTFYVNVMGWYRQAPGKEREFVAAISTRGVSTSYADSVKGRFTISRDNAKNTVYLQMNSLKPEDTAVYYCAASFRRPQPKGTTYGYWGQGTQVTVSS
  polyreactivity (PSR sort gate): high polyreactivity

## QVQLVESGGGLVQAGGSLRLSCAASGRTLRYNVMGLYRQAPGKERELVAVIDRSGVSTYYADSVKGRFTISRDNAKNTVYLQMNSLKPEDTAVYYCAAPRVVYRGDYWGQGTQVTVSW
  polyreactivity (PSR sort gate): high polyreactivity

## QVQLVESGGGLVQAGGSLRLSCAASGRIFCVYAMGWYRQAPGKERELVAAIDTSDGSTNYADSVKGRFTISRDNAKYTVYLQMNSLKPEDTAVYYCNATDSYVPFDYWGQGTQVTVSS
  polyreactivity (PSR sort gate): low polyreactivity

## QVQLVESGGGLVQAGGSLRLSCAASGFTFRIYDMGWYRQAPGKERELVAAITNGGSTDYAYSVKGRFTISRDNAKNTVYLQMNSLKTEDNAVYYCAADVTYQVYDLVSVWYDYWGQGTQVTVSS
  polyreactivity (PSR sort gate): low polyreactivity

## QVQLVESGGGLVQAGGSLRLSCAASGSTFYKYAMGWYRQAAGKERELVASISRSGGSTSYADSVKGRFTISRDNAKNTVYLQMNCLKPEDTAVYYCAATWRQHPGSMGYWGQGTQVTVSS
  polyreactivity (PSR sort gate): high polyreactivity

## QVQLVESGVCLVQAGGSLRLSCASSGRIFKIYMGWYRQAPGKERELVAAISSGGRTYYADSVKGRFTISRDNAKNTVYLQMNSLKPEDTAVYYCAAEGTYYFRYPGPEDYDYWGLGTQVTVSS
  polyreactivity (PSR sort gate): high polyreactivity

## QVQLVESGGGLVQAGGSLRLSCAASGRTFSYNAMGWYRPAPGKERELVAVITYSGGSTYYADSVKGRFTISRDNAKNTVYLQMNSLKPEDTAVYYCNADGYRPYQNGYDYWGQGTQVTVSS
  polyreactivity (PSR sort gate): high polyreactivity

## QVQLVESGGGLVQAGGSLRLICAASGSTFDVNAMGWYRQAPGKEREFVAANSWSGGSTYYADSVKGRFTISRDIAKNTVYLQMNSLKPEDTAVYYCNADYVFKDGLGFRGLAGGDYWGQGTQVTVSS
  polyreactivity (PSR sort gate): low polyreactivity

## QVQLVESGGGLVQAGGSLRLSCAASGSIFPINARGWYRQAPGKERELVAAISRRTGSTYYPDSVKGRFTISRDNAKNTVYVQMNSLKPEDTAVYYCAASYGTTRQRWLDYWGQGTQVTVSS
  polyreactivity (PSR sort gate): high polyreactivity

## QVQLVESGGGLVQAGGSLRLSCAASGSIFRQNAMGWYRQAPGKERELVAAISSSGGSTYYADSVKGRFTISRDNAKNTVYLQMNSLKPEDTAVYYCAARLRRTQTYSSGRPGDYWGQGTQVTVSS
  polyreactivity (PSR sort gate): high polyreactivity

## QVQLVESGGGLFQAGGSLRLSCAASGRTFRTNAMGWYRQAPGKERELVAAITRSGGSTYADSVKGRFTISRDNAKNTVYLQMNSLKPEDTAVYYCATTRDWVYNYWGQGTQVTVSS
  polyreactivity (PSR sort gate): low polyreactivity

## QVQLVESGGGLVQAGGSLRLSCAASGRTFRPYAMGWYIQAPGKERELVAAIDSSGTSTYYADSVKGRFTISRDNAKNTVYLQMNSLKPEDTAVYYCAKAWPDHWYSRYDYWGQGTQVTVSS
  polyreactivity (PSR sort gate): low polyreactivity

## QVQLVESGGGLVQAGGSLRLSCAASGSTFWYNTMGWYRQAPGKERELVAAISWSGGSTYADSVKGRFTISRDNAKNTVYLQMNSLKPEDTAVYYCNADDYYRYDYWGLGTQVTVSS
  polyreactivity (PSR sort gate): low polyreactivity

## QVHLVESGGGLVQAGGSLRLSCAASGRTFRLYAMGWYRQAPGKERELVAAITRGGRTNYADSVKGRFTISRDNAKNTVFLQMISLKPEDTAVYYCAARYVERHTDYYYWGQGTQVTVSS
  polyreactivity (PSR sort gate): low polyreactivity

## QVQLEDSGGGLVQAGGSLRLSCAASGRIFGKYAMGWYRQAPGKERELVAAISYSGGRTYYADSVKGRFTISRDNAKNTVYLQMNSLTPEDTAVYYCAAVYHGINSYDYDYSGQGTQVTVSS
  polyreactivity (PSR sort gate): high polyreactivity

## QVQLVESGGGLVQAGGSLRLSCAASGSTFTWYGMGWYRQAPGKETELVAAISGSGGRTYYADSVKGRFTISRDNAKNTVYFQMNSLKPEDTAVYYCNADPANPFGTEFEYWGQGTQVTVSS
  polyreactivity (PSR sort gate): high polyreactivity

## QVQLVESGGGLVQAGGSLRLSCAASGRTFPYYAMGWYRQAPGKEMELVAAISSSGGRTYYADSVKGRFTISRDNAKNTVYLQMNSLKPEDTAVYYCNAESTYYPSGEDYWGQGTQVTVSS
  polyreactivity (PSR sort gate): low polyreactivity

## QVQLEESGGGLVQAGGSLRLSCAPSGSIFFYYAMGWYRQAPGKERELVAAITFTGGSTYYADSVKGRFTISRDNANNTVYLQMNSLNPEDTAVSYCAADWYYGDEYEYWGQGTQVTVSS
  polyreactivity (PSR sort gate): high polyreactivity

## QVQLVESGGGLVQAGGSLRLSCAASGSIYRYYPMGWYRQAPGKEREFVAAITYSDSDTYYADSVKGRFTISRDNAKNTVYLQMNRLKPEDTAVYYCAARFRRTRVTYYYWGQGTQVTVSS
  polyreactivity (PSR sort gate): high polyreactivity

## QVQLVESGGGLVQAGGSLRLSCAASGSTFSSYAMGWYRQAPGKERELVAAINWSGTRTYYADSVKGRFTISRDNAKNTVYLQMNSLKPEDTAVYYCAAPGFGETADYDDWGQGTQVTVSS
  polyreactivity (PSR sort gate): low polyreactivity

## QVQLVESGGGLVQAGGSLRLSCAASGRTLSTNGMGWYRQAPGKERELVATITRRGGRTYYADSVKGRFTISRDNAKNTVYLQMNSLKPEDTAVYYCATEQADRRVTYKYWGQGTQVTVSS
  polyreactivity (PSR sort gate): high polyreactivity

## QVQLVESGGGLLQAGGSLRLSCAASGFTFRPYAMGLYRQAPGKERELVAAIDYSGGSTSYADSVKGRFTISRDNAKNTVYLQLNSLKPEDTAVFSCATDYPLSWSPLYDYDYWGQGTQVTVSS
  polyreactivity (PSR sort gate): low polyreactivity

## QVQLVESGGGLVQAGGSLRLSCAASGSIFFVNAMGWYRQAPGKERELVAGITGGGSTYYADSVKGRFTISRDNAKNTVYLQMNSLKPEDTAVYYCNKKAYRKTGMDYWGQGTQVTVSS
  polyreactivity (PSR sort gate): low polyreactivity

## QVQLVESGGGLDQAGGSLRLSCAASGYTLGDYAMGWYRQAPGKERELVAVITRNGGRTYYADSVKGRFTISRDNAKNTVFLQMNSLKPEDTAVYYCNRDTSIRDYNYWGQGTQVTVSS
  polyreactivity (PSR sort gate): high polyreactivity

## QVQLVESGGGLVQAGGSLRLSCAASGSTFSGNTMGWYRQAPGKERELVAAISRGGTRTNYADSVKGRFTISRDNAKNTVYLQMNSLKPEDTAVYYCAAGGSWGQNGYWGQGSQVTVSS
  polyreactivity (PSR sort gate): high polyreactivity

## QVKLVESGGGLVQAGGSLRLSCAASGFTFANYAMGWYRQAPGKEREFVAAITKGGGSTNYADSVKGRFTISRDNAKNTVYLQMNSLKPEDTAVYYCNADYFVWYIGRVFSRYGYWGQGTQVTVSS
  polyreactivity (PSR sort gate): low polyreactivity

## QVQLVESGGGLVQAGGSLRLSCAASGSIFTYYTMGWYRPAPGKERELVAAISNRGGSTYYADSVKGRFTISRDNSKITVYLQMNSLKPEDTAVYYCNKDVGVAVEMAYWGQGTQVTVSS
  polyreactivity (PSR sort gate): high polyreactivity

## QVQLVESGGGLVQAGGSLRLSCAASGRTFQLNAMGWYRQAPGKERELVAAISTRGGSTYYADSVKGRFTISRDNAKNTVYLQMNRLKPEDTAVYYCAAVTKTLYRSYFLMYYWGQGTQVTVSS
  polyreactivity (PSR sort gate): high polyreactivity

## QVQLVESGGGLVEAGGSLRLSCAASGIIFYGYDMGWYREAPGKERELVAGITVSGGTYYADSVKGRFTISRDNAKNTVYLQMNSLKPEDTAVYYSARDQWPYVHGKYAYWGQGTQVTVSS
  polyreactivity (PSR sort gate): low polyreactivity

## QDQHVESGVGLVQAGGSLRLSCAASGSIFGNYAMGWYRQAPGKERELVAAIRVSDGRTYDADSVKGRFTISRDNAKNTVYLQMNSLKPEDTAVYYCAAESESSYGPYDYWGQGTQVTVSS
  polyreactivity (PSR sort gate): low polyreactivity

## QVQLVESVGGLVQAGGSLRLSCAASGFTFRKYAMGWYRQAPGKERELVAGISWSGGTTYYADSVKGRFTISRDNAKNTVYLQMNSLKPEDTAVYYCNAKRVQVFAGYSYDYWGQGTQVTVSS
  polyreactivity (PSR sort gate): high polyreactivity

## QVQLVESGRGLVQAGGSLRLSCAASGSIFYNNAMGWYRQAPGKERELVAAIRSTGTRTYYADSVKGRFTISRDNAKNTVYLQMNSLKPEDTAVYYCAVGDYGLWSYDCWGQGTQVTVSS
  polyreactivity (PSR sort gate): low polyreactivity

## QVQLVESGGGLFHAGGSLRLSCAAYGSTFPYYTMGWYRQAPGKERELVAAITTRGGGTYYADSVKGRFTISRDNAKNTVYIQMKSLKPEDTAVYYCAAKTIYYTRGIRHYYWGQVTQVTVSS
  polyreactivity (PSR sort gate): high polyreactivity

## QVQLVESGGGLVQAGGSLRLSCAASGSNFNIKAIGWYRQAPGKERELVATIPSGGTTSSADSVNGRFTISRDNAKNTVYLQMNSLKPEDTAVYYCYAEIYPIVKAGRHHRRRYDYWGQATQVTVSS
  polyreactivity (PSR sort gate): low polyreactivity
